Data taken from patent US20200340031A1 (YALE UNIVERSITY, published 2020).
Substitutions are numbered along the chain they refer to. One block for each binder: values may come before it.

Columns and labels:
[1] = target: T1, Recombinant human renalase-1 expressed and secreted by pCDNA3-renalase-1-transfected 293T cells (human, UniProt Q5VYX0 18-342, limits assumed); test: Western blot; lane 293 s/n taken as supernatant of renalase-expressing 293 cells, the text does not explain the lane
T1 construct: whole renalase-1 entry named; Present in cell culture supernatant; also called mammalian-expressed recombinant human renalase
T1 sequence (Q5VYX0 18-342 limits assumed): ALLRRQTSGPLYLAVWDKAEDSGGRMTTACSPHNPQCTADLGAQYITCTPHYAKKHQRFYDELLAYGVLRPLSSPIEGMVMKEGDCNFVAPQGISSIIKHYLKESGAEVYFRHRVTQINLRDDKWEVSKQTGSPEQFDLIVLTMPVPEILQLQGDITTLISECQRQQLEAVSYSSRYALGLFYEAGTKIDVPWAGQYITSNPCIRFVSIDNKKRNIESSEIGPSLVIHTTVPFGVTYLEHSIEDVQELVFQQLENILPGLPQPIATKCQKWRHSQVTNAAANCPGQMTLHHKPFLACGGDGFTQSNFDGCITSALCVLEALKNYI

[2] = target: T1, Recombinant human renalase-1 expressed …; test: Immunoprecipitation from 293T supernatant with Protein G Sepharose, Western blot with biotinylated Ren 28-4
Protocol: All samples were incubated for 2 hours at 4° C. on a shaker. Immunoprecipitates were then washed 3 times with 1 mL RIPA buffer. 50 ul SDS-PAGE sample buffer (Fermentas) was added directly to Protein G-antibody immunoprecipitates and samples were heated to 95° C. for 5 minutes before running on SDS-PAGE. Actigel-antibody immunoprecipitates were washed a further 2 times in PBS prior to addition of 50 ul 0.1 M Glycine, pH 2.5. Samples were then agitated at room temperature for 10 minutes. Eluted proteins were recovered after centrifugation and resolved by SDS-PAGE. In all experiments 20 μL immunoprecipitate input material and 0.5 ng recombinant renalase positive control (RV11) were also loaded onto the gel.
In the example where a Protein G-mediated immunoprecipitation was used the western primary antibody was biotinylated-Ren 28-4 followed with a neutravidin-HRP secondary probe. In all cases where no immunoprecipitating antibody was added, no renalase was detected on the Western blot. All of the 1D and 1F antibodies (monoclonal and polyclonal) were able to immunoprecipitate bacterially- or mammalian-expressed recombinant human renalase.

[3] = target: T2, RPC1 reference standard peptide; test: standard curve in the sandwich ELISA with m42-RNLS capture and electro-chemiluminescence detection
T2 construct: Synthetic: m42 peptide antigen linked to the m28 peptide antigen
T2 sequence (peptide, as listed by the source): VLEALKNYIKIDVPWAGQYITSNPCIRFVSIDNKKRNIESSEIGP
Protocol: (§1) In this example, human plasma samples were pretreated as follows: To 40 μL of plasma, 20 μL of 1N Citric acid was added and the samples were incubated on a shaker for 15 min at RT. The reaction solution was neutralized by adding 40 μL of 1M Na₂HPO₄. The samples were then stored on ice and further diluted with Diluent 100 to obtain readings in linear range. Assay protocol: Renalase levels in plasma was measured using the prototype assay on the Mesoscale platform (Meso Scale diagnostics, Gaithersburg, Md., USA) which employs proprietary electro-chemiluminescence detection methods combined with patterned arrays. Standard 96-well assay plate from Mesoscale Diagnostics were coated with 40 μL of Ren 1F 42-7 (m42-RNLS) capture antibody (2 μg/mL) and incubated for 2 hours on a shaker at room temperature. Following this, 150 μL of 3% Blocker A was added and the plate incubated on a shaker for 1 hour at room temperature. The plate was then washed with 150 μL of PBST (3 times); diluted acid activated samples and calibrator was added and the plate incubated for 2 hrs at RT on a shaker. […] The plate was washed and 2× read buffer was added and the plate imaged on SQ120 (Meso Scale Discovery). The raw data was analyzed using the Discovery Workbench software. […]

[4] = target: T3, RPC2 reference standard peptide; test: as above
T3 construct: Synthetic: m42 peptide antigen linked to the m28 peptide antigen
T3 sequence (peptide, as listed by the source): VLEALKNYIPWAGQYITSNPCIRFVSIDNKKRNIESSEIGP
Protocol: as §1

B1: anti-1D epitope monoclonal antibody 1D-28-4 (antibody, V domains shown)
VH: QSVEESGGRLVTPGTPLTLTCTVSGFSLSSFAVGWVRQAPGKGLEYIGIISSVGITRYASWAAGRFTISKTSTTVDLKITSPTTEDTATYFCARYGYSGDVNRLDLWGQGTLVTVSS
VL: AQVLTQTASPVSAAVGGTVTINCQASQSVYDNNNLAWYQQKPGQPPKQLIYGASTLASGVSSRFKGSGSGTQFTLTISGVQCDDAATYYCLGEFSCSSADCFAFGGGTEVVVKG
notes: Rabbit monoclonal from hybridoma, purified on Protein A. Used biotinylated in some assays; also called Ren 1D 28-4; Ren1D 28-4
- binding result [1]: binds

B2: anti-1D epitope monoclonal antibody 1D-37-10 (antibody, V domains shown)
VH: QSVEESGGRLVTPGGSLTLTCTVSGFSLSDYAIIWVRQAPGKGLEYIAIIGSSGDTFYATWAKGRFTISKTSTTVDLKMTSLTAADTATYFCAPRYAGTTDYHDAFDPWGPGTLVTVSS
VL: EVVMTQTPASMEAPMGGTVTIKCQASQNIYNYLSWYQQKPGQPPKLLVYKASTLTSGVPSRFKGSGSGTQFTLTISDLECADAATYYCQINYSIYNHYNIIFGGGTEVVVKG
notes: Rabbit monoclonal; also called Ren 1D 37-10
- binding result [1]: binds

Now from value to binder:

- binding result [2]: binds
B3: anti-1F epitope monoclonal antibody 1F-26-1 (antibody, V domains shown)
VH: QSVKESEGGLFKPTDTLTLTCTVSGFSLSSYGVTWVRQAPGNGLEWIGLIGDRGTTFYASWAKSRSTITRNTNLNTVTLKMTRLTAADTATYFCARGSGYGARIWGPGTLVTVSS
VL: AQVLTQTPSPVSAAVGGTVTINCQSSQSVYKNNYLAWYQQKPGQPPKLLIYETSKLASGVPPRFSGSGSGTQFTLTISSVQCDDAATYYCQGGYSGVDFMAFGGGTEVVVKG
notes: Rabbit monoclonal; Used biotinylated as detection antibody in the sandwich ELISAs; also called Ren 1F 26-1

- binding result [3]: binds
- binding result [4]: binds
- binding result [2]: binds
B4: anti-1F epitope monoclonal antibody 1F-42-7 (antibody, V domains shown)
VH: B3 VH with S29T, S30T, F57Y, A62V, K63N, S64G, S114A
VL: B3 VL with V11M, V15L, S28T, K31N, A36S, A57S
notes: Rabbit monoclonal; also called Ren 1F 42-7; m42-RNLS
